In patent US20260258115A1 (MAPP BIOPHARMACEUTICAL, published 2026):

B1: ADI-20976 (antibody, V domains shown)
VH: QVQLVESGGDLVQKGGSLRLSCAASGFTFDNYAMTWIRQAPGQGLEWVSTVSGFVLGTGYTTYYADSVKGRFTISRDSSKNTVYLQLNSLRAEDTAVYYCAKCAATRNECLWDYLQQWGQGTTVTVSS
VL: EIVMTQSPSSLSASVGDRVTITCRASQSVSIYLNWYQQKGGKAPKLLIYGASALQRGVPSRFSGSGSGTDFTLTITSLQPEDFATYFCHQSYSAPQTFGQGTKVDIK
B2: ADI-20989 (antibody, V domains shown)
VH: EVQLLESGPGLVKPSGTLSLTCAVSGGSIINSNWWSWVRQSPGKGLEWIGDIYHSGSTTYNPSLKSRVTISVDRSKNQYSLRLTSVTAADTAVYYCAKIGPDNRSGPDYYYFMDVWGKGTTVTVSS
VL: EIVLTQSPSSLPASVGDRVTISCRASQSISNYVYWYQQKPGKAPKLLIYAASSLQSGVPSRFSGSGSGTDFTLSISSLQFEDFATYFCQQSYSTPPTFGQGTKLEIK
B3: ADI-20967 (antibody, V domains shown)
VH: EVQLLESGGGVVQPGRSVRLSCAASGFSFSSYALHWVRQAPGKGLEWVGVIWYEESNKYYADPVKGRFTISRDNSKNTLYLQMNSLRDEDTAVYYCARKGVATAGLDYWGQGTLVTVSS
VL: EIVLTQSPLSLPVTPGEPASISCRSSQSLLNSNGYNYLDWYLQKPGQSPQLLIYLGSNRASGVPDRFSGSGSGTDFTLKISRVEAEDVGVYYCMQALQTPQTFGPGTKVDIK
notes: also called Ab 220
B4: ADI-20968 (antibody, V domains shown)
VH: QVQLQQWGAGLLKPSETLSLTCAMYGGSFSDDYWSWIRQPPGKGLEWIGEVNHGGSTNYNTSLKSRVTISADTSKKQFSLKLRSVTAADTAVYFCARGWRYCNATTCYSKAFDIWGQGTMVTVSS
VL: DIQMTQSPSSLSASVGDRVTITCQASQDIDIYLIWYQQKPGRAPKLLIYDASNLKTGVPSRFSGSGSGTEFTFTINNLQPEDFATYYCQQFHDLPLTFGGGTKLEIK
B5: ADI-20981 (antibody, V domains shown)
VH: QVQLQESGPRLVKPSETLSLTCTVSGDSISSRNYFWAWIRQPPGKGLEWIGTIYYSGNTYSNPSLKSRVTISVDTSKKQFSLNLSSVTAADTAVYYCARGAYGGDAFDIWGQGTVVTVSS
VL: DIRVTQSPSSVSASVGDRVTITCRASQGIGTWLAWYQQKPGKAPHLLIYAASRLQSGVPSRFSGSGSGTDFTLSISSLHPEDFATYYCQQAYAFPRTFGQGTKVEIK
B6: ADI-20972 (antibody, V domains shown)
VH: QVQLQQWGAGLLRPSETLSLTCAVSGGSFSGHYWSWIRQPPGKGLEWIGGINHSGNTNYSPSLRSRVTMSVDTSRNQFSLMLRSVTAADTAVYFCARNVPNLYGDYPRWFDPWGQGTLVTVSS
VL: QSVLTQPASVSGSPGQSITISCTGTSSDVGGFNYVSWYQHHPGKAPKLMIYDVNNRPSGASNRFSGSKSGNTASLTISGLQAEDEADYYCSSYRSSDTLYVFGTGTKVTVL
B7: ADI-20975 (antibody, V domains shown)
VH: QVQLVESGTHVKKPGASVKVSCEASDDTFNNKGIVWVRQAPGQGLEWMGWIRPNNGNTKYAQKFQGRVTMTTDASTNTAYMELRSLRSGDTAVYYCAREQFKWNDFYFDYWGQGILVTVSS
VL: SYELMQPPSVSVAPGQTATITCGGSNIGSETVHWYQQKPGQAPVLVVHDDTDRPSGIPERFSGSNSGNTATLTISGVEAGDEADFYCQVRDSRTDDVVFGGGTKLTVL
B8: ADI-20963 (antibody, V domains shown)
VH: EVQLVESGGGLAKPGGSLRLSCAASGFTFSHYNMNWVRQAPGKGLEWVSSISSTGFHIYYADSVKGRFVISRDNAENSLHLQMNSLRADDTGLYYCVRAEYYYGSGSAGHYFDSWGQGTLVTVSS
VL: SYVLTQPPSVSVAPGHTAKITCGGSIIGTKSVHWYQQKPGQAPVLVVYDDSDRPSGIPERLSGSRSGNTATLTITRVEAGDEADYYCQVWDSSSEHAGVFGGGTKLTVL

biological target: RSV prefusion F (preF), subtype A (respiratory syncytial virus, subtype A, UniProt P03420 26-513); assay: BLI, IgG

Binder | Kd
B1 | 1.86 nM
B2 | 4.8 nM
B3 | 2.23 nM
B4 | 0.135 nM
B5 | 2.34 nM
B6 | 0.888 nM
B7 | 0.092 nM
B8 | 0.791 nM

biological target: T1, RSV postfusion F (postF), subtype A (respiratory syncytial virus, subtype A, UniProt P03420 26-513); assay: BLI, IgG
T1 construct: also called F ΔFP; Postfusion subtype A

Binder | Kd
B1 | 0.263 nM
B2 | 0.428 nM
B3 | 0.257 nM
B4 | 0.157 nM
B5 | 0.233 nM
B6 | 0.401 nM
B7 | 0.146 nM
B8 | 0.0909 nM

biological target: RSV prefusion F (preF), subtype B (respiratory syncytial virus, subtype B); assay: BLI, IgG

Binder | Kd
B1 | 0.955 nM
B2 | 6.29 nM
B3 | 4.08 nM
B4 | 0.127 nM
B5 | 2.14 nM
B6 | 6.06 nM
B7 | 0.0958 nM
B8 | 3.14 nM

biological target: T2, RSV postfusion F (postF), subtype B (respiratory syncytial virus, subtype B); assay: BLI, IgG
T2 construct: also called F ΔFP; Postfusion subtype B

Binder | Kd
B1 | 0.304 nM
B2 | 0.809 nM
B3 | 3.45 nM
B4 | 0.15 nM
B5 | 0.295 nM
B6 | 3.48 nM
B7 | 0.129 nM
B8 | 0.614 nM
